Experimental data as given in PMC11192940.

Target: GST-Rheb protein (UniProt Q15382)
Assay: BLI

Sequence of GST-Rheb protein (Q15382 1-169): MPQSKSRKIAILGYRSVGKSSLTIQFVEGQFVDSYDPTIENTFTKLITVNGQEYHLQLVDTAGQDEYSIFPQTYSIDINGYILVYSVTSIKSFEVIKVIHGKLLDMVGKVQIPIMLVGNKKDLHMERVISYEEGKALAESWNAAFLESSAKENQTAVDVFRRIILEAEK

Kd: 54.2 nM
Substance: His-IL-37d, recombinant human IL-37d protein with a TAT peptide (pET-22b-TAT-his-IL-37d; mature IL-37d 21–197aa) (from UniProt Q9NZH6-4 21-197)
